Data on 37 sequences can be found in the supplement of paper PMC10567573.

± gives the standard deviation.

This series in a line: protein stability index of a GFP-peptide fusion (GPS, HEK-293T) (PSI 1-6); higher = more stable. To be noted: c terminus: a fixed tail appended.
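Note: 24-mer peptide tiles fused after GFP, lentivirally expressed, FACS-sorted into six equal bins by GFP/DsRed ratio, decoded by Illumina sequencing, PSI is the read-weighted mean bin number.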

The sequence AAALLSNTTCQTENRLSVFFSVIF [PTGFR] gave a protein stability index (treatment: DMSO) of 2.43 ± 0.35 and a protein stability index (treatment: MLN4924 1 uM, 8 h) of 2.33 ± 0.18.
On the same counts, the results for AAAPVAEVPTAAGALTPTPAPTTT [CLPTM1] are 5.3 ± 0.34 and 5.25 ± 0.097.
In turn, AACTRALESSEELLETANQTLQAM [FSD1] had a protein stability index (treatment: DMSO) of 5.14 ± 0.16 and a protein stability index (treatment: MLN4924 1 uM, 8 h) of 4.84 ± 0.38.
Turning to AAGELPTVECYNPRTNEWTYVAKM [KLHL13], the protein stability index runs as follows: (treatment: DMSO) 3.11 ± 0.37; (treatment: MLN4924 1 uM, 8 h) 3.2 ± 0.42.
Taken in the same sequence, the figures for AALRIANCKLFRLQLQQGLFRIRV [GAN] were 2.8 ± 0.57 and 2.58 ± 0.51.
Taken in the same sequence, the figures for AARNACRAGTEPSDAIRVVNAVLT [TRIP13] were 3 ± 0.45 and 3.19 ± 0.33.
Taken in the same sequence, the figures for AATQVFFALGLGFGGVIAFSSYNK [SLC6A17] were 2.64 ± 0.43 and 2.83 ± 0.67.
Turning to ACRANVKSGAIMSALSDTEIQREI [PPFIA4], the protein stability index runs as follows: (treatment: DMSO) 3.41 ± 0.29; (treatment: MLN4924 1 uM, 8 h) 3.57 ± 0.47.
ADNMLEYKSWLKNLAKEQLSRENI [PPEF2] displayed a protein stability index (treatment: DMSO) of 3.61 ± 0.27 and a protein stability index (treatment: MLN4924 1 uM, 8 h) of 3.75 ± 0.38.
Regarding ADSGRYRASPTRTAPLPMPEGPEP [ELOA2], the protein stability index was found to be 4.84 ± 0.32 (treatment: DMSO) and 4.96 ± 0.28 (treatment: MLN4924 1 uM, 8 h).
Taken in the same sequence, the figures for ADSSAQAAAQAPENFQEGKDMSES [TAF7L] were 5.72 ± 0.14 and 5.49 ± 0.39.
With AEGTPRSNHSAQDSAVENLLLLSK [IKZF1], the protein stability index (treatment: DMSO) worked out at 4.67 ± 0.41 and the protein stability index (treatment: MLN4924 1 uM, 8 h) is 4.86 ± 0.95.
Taken in the same sequence, the figures for AEKCLDFLVDMFNDEIEEVRLQSI [INTS4] were 2.94 ± 0.16 and 2.94 ± 0.4.
On the same counts, the results for AEKLKAQGEYSRKLEERFMTLAAN [CCDC89] are 3.4 ± 0.41 and 3.49 ± 0.45.
On the same counts, the results for AFGYFITACAVIILTIICYLGLPR [SLC29A1] are 2.3 ± 0.52 and 2.32 ± 0.41.
Regarding AFHEPQVGLIQAAQQLLCDEQAPQ [DFFB], the protein stability index stood at 4.64 ± 0.18 (treatment: DMSO) and 4.92 ± 0.18 (treatment: MLN4924 1 uM, 8 h).
For AFLGDAEIIELLILSGARVNAKDN [ANKRD44], the protein stability index by setting is: (treatment: DMSO) 2.45 ± 0.73; (treatment: MLN4924 1 uM, 8 h) 2.32 ± 0.23.
On the same counts, the results for AGALAQGGGPSATEWACILRRKTP [C6orf223] are 3.56 ± 0.17 and 3.75 ± 0.29.
Consider AGGQDMADSMLMQGSRGLTDQAIF [HDAC6], for which the protein stability index stood at 3.73 ± 0.054 (treatment: DMSO) and 3.86 ± 0.38 (treatment: MLN4924 1 uM, 8 h).
In the case of AGKLRLLREMCALSFQEELLYWGI [KCNG1], the protein stability index amounted to 2.88 ± 0.5 (treatment: DMSO) and 2.34 ± 0.24 (treatment: MLN4924 1 uM, 8 h).
Consider AGNKAALLDQIREGAQLKKVEQNS [WASL], for which the protein stability index (treatment: MLN4924 1 uM, 8 h) was found to be 5.24 ± 0.4.
On to AGPGAAEPLPVERDPAAGAAPFRF [ZNF511], for which the protein stability index reads like this: (treatment: DMSO) 4.38 ± 0.17; (treatment: MLN4924 1 uM, 8 h) 4.64 ± 0.29.
Take AGSVFGGGFGGGVGGGFGGGFGGG [KRT15]: the protein stability index runs as follows: (treatment: DMSO) 2.56 ± 0.23; (treatment: MLN4924 1 uM, 8 h) 2.65 ± 0.21.
On the same counts, the results for AHEYIFCFVLGFFYPVMLILFLVI [SOAT2] are 2.98 ± 0.56 and 3.03 ± 0.23.
Taken in the same sequence, the figures for AHIHLQQLTCFSITCSSTMSYSCC [KRT34] were 3.37 ± 0.64 and 2.95 ± 0.26.
On to AHVGMELQLKQELAMLNAVTEDLR [SCARA5], for which the protein stability index came to 3.27 ± 0.27 (treatment: DMSO) and 3.16 ± 0.45 (treatment: MLN4924 1 uM, 8 h).
Taken in the same sequence, the figures for AIDQYRVCQEVLERSRDVVDDVSV [RHOBTB2] were 4.66 ± 0.31 and 4.78 ± 0.13.
On the same counts, the results for AIELFHSYRETRRKEGIVKLKPHE [PTPN9] are 3 ± 0.2 and 3.25 ± 0.27.
On the same counts, the results for AIHQDPPDECGKTEFTRFLCSSPL [ATE1] are 3.78 ± 0.24 and 3.82 ± 0.17.
For AIIRERSSCVKILLDHNANIDIQN [ASB7], the protein stability index came out at 2.52 ± 0.4 (treatment: DMSO) and 2.64 ± 0.26 (treatment: MLN4924 1 uM, 8 h).
On the same counts, the results for AKAEGFTASTKNCMVGYDMGATRC [CPXM2] are 3.42 ± 0.31 and 3.62 ± 0.1.
Taken in the same sequence, the figures for AKDYADSIHAIFVETSAKNAININ [RAB22A] were 2.59 ± 0.27 and 2.48 ± 0.34.
On the same counts, the results for AKHMGLEPPPEVWQVLKTHPGDPR [POLD4] are 3.77 ± 0.25 and 3.93 ± 0.48.
Under “treatment: MLN4924 1 uM, 8 h”, ALAAIYEEKEAWYREESDSLGQDL [DAPK3] returned a protein stability index of 4.6 ± 0.5.
As for ALARKQAQEQLRPQTPEPVEGRKH [RSPH3], the protein stability index was 5.33 ± 0.18 (treatment: DMSO) and 5.31 ± 0.28 (treatment: MLN4924 1 uM, 8 h).
Sequence ALLFIPRRAPFDLFENKKKKNNIK [HSP90AB1] came in with a protein stability index (treatment: DMSO) of 2.19 ± 0.27.
Take ALRMATWNQILDPWVYILLRKAVL [PTGFR]: the protein stability index reads like this: (treatment: DMSO) 2.98 ± 0.68; (treatment: MLN4924 1 uM, 8 h) 2.43 ± 0.41.
